From patent publication US10428140B2, “Anti-EphA4 antibody” (EISAI R&D MANAGEMENT CO., LTD., priority 2015, dated 2019)

T1: human EphA1 (Homo sapiens, UniProt P21709)
T1 construct: a protein of the extracellular region of each human Eph receptor fused with the SEAP protein and the His tag; made in house; host or cells: Expi293F cells (culture supernatant)
T1 sequence (P21709 26-547 limits assumed): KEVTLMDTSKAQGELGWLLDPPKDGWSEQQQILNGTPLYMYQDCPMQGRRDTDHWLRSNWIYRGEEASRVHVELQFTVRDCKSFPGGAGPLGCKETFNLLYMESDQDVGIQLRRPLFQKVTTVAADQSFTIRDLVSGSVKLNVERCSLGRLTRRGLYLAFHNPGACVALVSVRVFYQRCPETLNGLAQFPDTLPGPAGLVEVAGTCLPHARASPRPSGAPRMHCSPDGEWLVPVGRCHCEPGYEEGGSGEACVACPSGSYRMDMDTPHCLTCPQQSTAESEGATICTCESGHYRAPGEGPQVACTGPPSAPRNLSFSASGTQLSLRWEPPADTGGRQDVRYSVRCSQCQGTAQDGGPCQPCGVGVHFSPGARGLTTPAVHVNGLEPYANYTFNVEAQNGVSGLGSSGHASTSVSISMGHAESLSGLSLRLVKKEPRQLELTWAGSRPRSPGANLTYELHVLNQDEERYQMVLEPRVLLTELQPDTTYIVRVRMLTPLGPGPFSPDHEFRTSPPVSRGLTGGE

T2: human EphA6 (Homo sapiens, UniProt Q9UF33)
T2 construct: a protein of the extracellular region of each human Eph receptor fused with the SEAP protein and the His tag; made in house; host or cells: Expi293F cells (culture supernatant)
T2 sequence (Q9UF33 23-550 limits assumed): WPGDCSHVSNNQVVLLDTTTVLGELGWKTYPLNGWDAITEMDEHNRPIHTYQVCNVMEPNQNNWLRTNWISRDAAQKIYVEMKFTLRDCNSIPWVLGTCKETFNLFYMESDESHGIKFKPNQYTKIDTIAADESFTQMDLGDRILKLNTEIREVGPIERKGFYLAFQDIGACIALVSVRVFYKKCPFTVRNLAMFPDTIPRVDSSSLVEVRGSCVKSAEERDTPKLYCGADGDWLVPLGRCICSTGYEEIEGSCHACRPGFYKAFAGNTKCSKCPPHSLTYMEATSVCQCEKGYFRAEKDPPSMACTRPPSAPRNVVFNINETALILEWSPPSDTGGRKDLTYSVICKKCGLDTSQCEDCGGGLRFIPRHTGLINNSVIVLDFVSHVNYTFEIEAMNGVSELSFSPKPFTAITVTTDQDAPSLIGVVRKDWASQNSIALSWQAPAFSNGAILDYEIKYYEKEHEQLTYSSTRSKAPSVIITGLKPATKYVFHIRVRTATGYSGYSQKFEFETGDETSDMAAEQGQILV

T3: human EphB1 (Homo sapiens, UniProt P54762)
T3 construct: a protein of the extracellular region of each human Eph receptor fused with the SEAP protein and the His tag; made in house; host or cells: Expi293F cells (culture supernatant)
T3 sequence (P54762 18-540 limits assumed): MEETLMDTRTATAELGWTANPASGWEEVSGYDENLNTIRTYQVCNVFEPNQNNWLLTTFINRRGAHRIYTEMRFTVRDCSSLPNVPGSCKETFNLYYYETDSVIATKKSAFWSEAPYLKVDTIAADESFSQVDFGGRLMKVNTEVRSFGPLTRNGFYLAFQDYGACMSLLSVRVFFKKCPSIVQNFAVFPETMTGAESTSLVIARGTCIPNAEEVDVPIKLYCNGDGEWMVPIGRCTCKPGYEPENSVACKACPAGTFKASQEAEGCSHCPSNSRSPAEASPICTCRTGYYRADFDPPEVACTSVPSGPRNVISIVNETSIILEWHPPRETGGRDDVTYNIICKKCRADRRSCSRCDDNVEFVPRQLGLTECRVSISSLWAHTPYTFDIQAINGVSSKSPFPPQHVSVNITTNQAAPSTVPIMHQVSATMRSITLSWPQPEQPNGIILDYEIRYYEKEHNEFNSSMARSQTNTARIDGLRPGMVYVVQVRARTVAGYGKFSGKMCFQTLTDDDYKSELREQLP


Experiments:
Experiment in all cases: Selectivity ELISA of humanized antibodies for human Eph receptor
Assay type in all cases: binding
Conditions in all cases: coated protein 1 nM
human EphA1 = target: T1, human EphA1
In short: (§1)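 Extracellular domains of human Eph receptors fused to SEAP-His were expressed in Expi293F cells for 5 days and captured from supernatant (1 nM final) on anti-His-coated plates. Humanized anti-EphA4 antibodies were incubated 1 h at room temperature, then HRP anti-IgG secondary, TMB substrate, and absorbance at 450 nm.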

human EphA6 = target: T2, human EphA6
In short: as §1

human EphB1 = target: T3, human EphB1
In short: as §1

Row | Molecule | hEphA1-SEAP-: absorbance at 450 nm, percentage with respect to hEphA4-SEAP-His as 100% (human EphA1) [%] | hEphA6-SEAP-: absorbance at 450 nm, percentage with respect to hEphA4-SEAP-His as 100% (human EphA6) [%] | hEphB1-SEAP-: absorbance at 450 nm, percentage with respect to hEphA4-SEAP-His as 100% (human EphB1) [%]
1 | 69 (antibody, V domains shown, synthetic humanized antibody heavy chain variable region sequence; synthetic humanized antibody light chain variable region sequence) VH: QIQLVQSGSELKKPGASVKVSCKASGYTFTDYSMHWVRQAPGQGLKWMGWINTETGEPTYADDFKGRFVFSLDTSVSTAYLQISSLKAEDTAVYYCARIPLYYYGSRYWYFDVWGQGTTVTVSS VL: DIQMTQSPSSLSASVGDRVTITCRASENIYRNLAWYQQKPGKAPKLLVYAATNLADGVPSRFSGSGSGTDYTLTISSLQPEDFATYYCQHFWGTPWTFGQGTKVEIK | 5.7 | 9.5 | 5.6
2 | 82 (antibody, V domains shown, constant regions without entry; synthetic humanized antibody light chain variable region sequence; synthetic humanized antibody heavy chain variable region sequence) VL: DIQMTQSPSSLSASVGDRVTITCRASENIYRNLAWYQQKPGKAPKLLLYAATNLADGVPSRFSGSGSGTDYTLTISSLQSEDFATYYCQHFWGTPWTFGQGTKVEIK VH: QVQLVQSGSELKKPGASVKVSCKASGYTFTDYSMHWVRQAPGQGLKWMGWINTETGEPTYAQGFTGRFVFSLDTSVSTAYLQISSLKAEDTAVYYCARIPLYYYGSRYWYFDVWGQGTTVTVSS | 5.4 | 8.7 | 5.4
3 | 85 (antibody, V domains shown, constant regions without entry; synthetic humanized antibody light chain variable region sequence; synthetic humanized antibody heavy chain variable region sequence) VL: DIQMTQSPSSLSASVGDRVTITCRASENIYRNLAWYQQKPGKAPKLLLYAATNLADGVPSRFSGSGSGTDYTLTISSLQSEDFATYYCQHFWGTPWTFGQGTKVEIK VH: QVQLVQSGSELKKPGASVKVSCKASGYTFTDYSMHWVRQAPGQGLKWMGWINTETGEPTYADDFKGRFVFSLDTSVSTAYLQISSLKAEDTAVYYCARIPLYYYGSRYWYFDVWGQGTTVTVSS | 5.0 | 6.2 | 5.0
4 | 83 (antibody, V domains shown, constant regions without entry; synthetic humanized antibody light chain variable region sequence; synthetic humanized antibody heavy chain variable region sequence) VL: DIQMTQSPSSLSASVGDRVTITCRASENIYRNLAWYQQKPGKAPKLLLYAATNLADGVPSRFSGSGSGTDYTLTISSLQSEDFATYYCQHFWGTPWTFGQGTKVEIK VH: QIQLVQSGSELKKPGASVKVSCKASGYTFTDYSMHWVRQAPGQGLKWMGWINTETGEPTYAQGFTGRFVFSLDTSVSTAYLQISSLKAEDTAVYYCARIPLYYYGSRYWYFDVWGQGTTVTVSS | 5.7 | 7.5 | 5.6
5 | 81 (antibody, V domains shown, constant regions without entry; synthetic humanized antibody light chain variable region sequence; synthetic humanized antibody heavy chain variable region sequence) VL: DIQMTQSPSSLSASVGDRVTITCRASENIYRNLAWYQQKPGKAPKLLLYAATNLADGVPSRFSGSGSGTDYTLTISSLQSEDFATYYCQHFWGTPWTFGQGTKVEIK VH: QVQLVQSGSELKKPGASVKVSCKASGYTFTDYSMHWVRQAPGQGLEWMGWINTETGEPTYAQGFTGRFVFSLDTSVSTAYLQISSLKAEDTAVYYCARIPLYYYGSRYWYFDVWGQGTTVTVSS | 4.4 | 8.8 | 4.9
6 | 86 (antibody, V domains shown, constant regions without entry; synthetic humanized antibody light chain variable region sequence; synthetic humanized antibody heavy chain variable region sequence) VL: DIQMTQSPSSLSASVGDRVTITCRASENIYRNLAWYQQKPGKAPKLLLYAATNLADGVPSRFSGSGSGTDYTLTISSLQSEDFATYYCQHFWGTPWTFGQGTKVEIK VH: QIQLVQSGSELKKPGASVKVSCKASGYTFTDYSMHWVRQAPGQGLKWMGWINTETGEPTYADDFKGRFVFSLDTSVSTAYLQISSLKAEDTAVYYCARIPLYYYGSRYWYFDVWGQGTTVTVSS | 5.9 | 8.6 | 5.7
7 | 87 (antibody, V domains shown, constant regions without entry; synthetic humanized antibody light chain variable region sequence; synthetic humanized antibody heavy chain variable region sequence) VL: DIQMTQSPSSLSASVGDRVTITCRASENIYRNLAWYQQKPGKAPQLLLYAATNLADGVPSRFSGSGSGTDYTLTISSLQPEDFATYYCQHFWGTPWTFGQGTKVEIK VH: QVQLVQSGSELKKPGASVKVSCKASGYTFTDYSMHWVRQAPGQGLEWMGWINTETGEPTYAQGFTGRFVFSLDTSVSTAYLQISSLKAEDTAVYYCARIPLYYYGSRYWYFDVWGQGTTVTVSS | 5.3 | 6.4 | 5.3
8 | 84 (antibody, V domains shown, constant regions without entry; synthetic humanized antibody light chain variable region sequence; synthetic humanized antibody heavy chain variable region sequence) VL: DIQMTQSPSSLSASVGDRVTITCRASENIYRNLAWYQQKPGKAPKLLLYAATNLADGVPSRFSGSGSGTDYTLTISSLQSEDFATYYCQHFWGTPWTFGQGTKVEIK VH: QVQLVQSGSELKKPGASVKVSCKASGYTFTDYSMHWVRQAPGQGLEWMGWINTETGEPTYADDFKGRFVFSLDTSVSTAYLQISSLKAEDTAVYYCARIPLYYYGSRYWYFDVWGQGTTVTVSS | 5.2 | 6.0 | 5.2
